Among the data in patent publication US20030059862A1 (Human Genome Sciences, published 2003) are binding result and IC50 values, retold here.

To fix the notation:
B2: APRIL (Tumor Necrosis Factor Delta), human (ligand)
chain: AVLTQKQKKQHSVLHLVPINATSKDDSDVTEVMWQPALRRGRGLQAQGYGVRIQDAGVYLLYSQVLFQDVTFTMGQVVSREGQGRQETLFRCIRSMPSHPDRAYNSCYSAGVFHLHQGDILSVIIPRARAKLNLSPHGTFLGFVKL
notes: Soluble purified APRIL and FLAG-tagged APRIL were used in the selections; also called TNF-delta; human APRIL

One test addresses T1, BCMA (Homo sapiens (Human), UniProt Q02223 1-48, limits assumed).
T1 chain: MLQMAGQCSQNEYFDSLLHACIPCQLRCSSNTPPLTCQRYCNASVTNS
Put plainly: Specificity phage ELISA (scFv on phage, anti-M13-HRP, A450). As to the method:
(§1) Flexible 96-well plates (Falcon) were coated overnight at 4° C. with each antigen (1 μg/ml). All antigens were coated in PBS. After coating, the solutions were removed from the wells, and the plates were blocked for 1 hour at room temperature in MPBS. The plates were washed 3 times with PBS and then 50 μl of pre-blocked phage was added to each well. The plates were incubated at room temperature for 1 hour and then washed with 3 changes of PBST followed by 3 changes of PBS.
(§2) To each well, 50 μl of an anti-M13-HRP conjugate (Pharmacia) at a 1 in 5000 dilution in MPBS was added and the plates incubated at room temperature for 1 hour. Each plate was washed three times with PBST followed by three times with PBS.
(§3) Fifty μl of TMB substrate was then added to each well, and incubated at room temperature for 30 minutes or until color development. The reaction was stopped by the addition of 25 μl of 0.5 M H₂SO₄. The signal generated was measured by reading the absorbance at 450 nm (A₄₅₀) using a microtitre plate reader (Bio-Rad 3550).

The target of a further test is T2, TACI (Homo sapiens (Human), UniProt O14836 1-154, limits assumed).
T2 sequence: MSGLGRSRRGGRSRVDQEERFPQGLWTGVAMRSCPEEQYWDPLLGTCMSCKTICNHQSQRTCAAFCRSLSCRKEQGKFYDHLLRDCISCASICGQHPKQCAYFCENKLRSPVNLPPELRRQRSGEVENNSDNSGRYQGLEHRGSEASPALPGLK
The test is described as above. The procedure:
as §1, §2, §3

The target of the next test is T3, BLyS (Homo sapiens (Human), UniProt Q9Y275 134-285).
T3 construct: also called Neutrokine-alpha
T3 sequence (Q9Y275 134-285 limits assumed): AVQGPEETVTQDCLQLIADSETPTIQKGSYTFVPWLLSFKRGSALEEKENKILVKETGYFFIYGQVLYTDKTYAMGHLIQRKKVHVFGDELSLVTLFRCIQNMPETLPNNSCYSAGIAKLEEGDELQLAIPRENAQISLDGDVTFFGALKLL
The description is as above. The procedure: as §1, §2, §3

For the next test, the target named is T4, LIGHT (Homo sapiens (Human), UniProt O43557 83-240, limits assumed).
T4 chain: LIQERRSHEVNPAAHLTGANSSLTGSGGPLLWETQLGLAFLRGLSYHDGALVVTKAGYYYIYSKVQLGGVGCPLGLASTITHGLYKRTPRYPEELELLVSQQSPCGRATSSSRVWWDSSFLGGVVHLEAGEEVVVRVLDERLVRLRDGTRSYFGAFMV
The description is as above. As to the method:
as §1, §2, §3

The target in the next test is T5, TNF-α (Homo sapiens (Human), UniProt P01375 77-233).
T5 construct: also called TNF-alpha
T5 sequence (P01375 77-233 limits assumed): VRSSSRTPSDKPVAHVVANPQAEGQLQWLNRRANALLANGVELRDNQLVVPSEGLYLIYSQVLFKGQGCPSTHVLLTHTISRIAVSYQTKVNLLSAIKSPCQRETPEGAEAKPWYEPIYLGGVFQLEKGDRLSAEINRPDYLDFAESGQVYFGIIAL
The test is described as above. The procedure:
as §1, §2, §3

The next test addresses T6, BSA (UniProt P02769 25-607).
T6 construct: Unrelated control antigen coated at 1 µg/ml in the phage ELISAs
Described as above. The procedure: as §1, §2, §3

The target in test [1] is T7, biotinylated APRIL (Homo sapiens (Human), UniProt O75888 105-250, biotinylated using NHS-biotin at a molar ratio of 20:1 biotin:APRIL).
T7 construct: also called bio-APRIL
T7 sequence: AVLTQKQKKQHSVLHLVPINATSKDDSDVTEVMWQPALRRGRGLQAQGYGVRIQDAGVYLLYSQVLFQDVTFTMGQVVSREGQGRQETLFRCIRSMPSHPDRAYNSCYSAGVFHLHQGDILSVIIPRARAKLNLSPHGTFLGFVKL
Put plainly: scFv inhibition of bio-APRIL (5 ng/ml) binding to coated BCMA fusion protein, streptavidin-DELFIA. As to the method:
(§4) APRIL binds to BCMA with higher affinity than its binds to TACI so, inhibition of biotinylated APRIL (bio-APRIL) binding to BCMA can be used to screen selection outputs as periplasmic extracts for neutralizers and then assess potency of the positives as purified scFvs. To perform this assay, each well of a black 96 well flat-bottomed plate (Costar) was coated with 1.25 ng BCMA fusion protein overnight at 4° C. The wells were blocked with 3% milk in PBS for an hour at room temperature. ScFv were then added in the presence of 5 ng/ml biotinylated APRIL for 90 minutes at room temperature. Binding of biotinylated APRIL was detected via streptavidin Delfia (Wallac) added at a 1:1000 dilution in Delfia assay buffer (Wallac). After an hour at room temperature this was read on a Wallac 1420 workstation at 620 nm.

For test [2], the target named is T7, biotinylated APRIL. Put plainly: scFv inhibition of bio-APRIL (50 ng/ml) binding to coated TACI fusion protein, streptavidin-DELFIA. The procedure:
as §4
(§5) An assay similar to that described above can also be used to test if anti-APRIL antibodies of the invention are able to inhibit binding of bio-APRIL to TACI. In this case, the plate was coated with 2.5 ng TACI fusion protein per well and scFv were added in the presence of 50 ng/ml biotinylated APRIL instead of 5 ng/ml. Otherwise, the method was identical to that for the BCMA:bio-APRIL assay.

Test [3] deals with T7, biotinylated APRIL. Put plainly: receptor binding inhibition assay: scFv titrated with bio-APRIL (5 ng/ml); blocked binding of bio-APRIL to plate-coated BCMA fusion protein; streptavidin Delfia, fluorescence counts. The procedure:
as §4

Test [4] has as its target T7, biotinylated APRIL. The test can be described thus: receptor binding inhibition assay: scFv titrated with bio-APRIL (50 ng/ml); blocked binding of bio-APRIL to plate-coated TACI fusion protein; streptavidin Delfia, fluorescence counts. The procedure: as §4, §5
For test [5], the target named is T8, BCMA fusion protein (Homo sapiens (Human), UniProt Q02223 1-48).
T8 construct: also called immobilized receptor
T8 chain: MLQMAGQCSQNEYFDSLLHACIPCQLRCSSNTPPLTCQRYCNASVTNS
Put plainly: Unlabelled APRIL titrated against 5 ng/ml bio-APRIL for binding to coated BCMA fusion protein, streptavidin-DELFIA. As to the method:
as §4

For test [6], the target named is T9, TACI fusion protein (Homo sapiens (Human), UniProt O14836 1-154).
T9 construct: also called immobilized receptor
T9 sequence: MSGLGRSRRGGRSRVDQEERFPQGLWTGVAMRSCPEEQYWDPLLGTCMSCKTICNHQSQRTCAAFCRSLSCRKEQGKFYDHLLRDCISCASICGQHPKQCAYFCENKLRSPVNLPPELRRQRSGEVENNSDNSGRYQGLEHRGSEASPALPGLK
Put plainly: Unlabelled APRIL titrated against 50 ng/ml bio-APRIL for binding to coated TACI fusion protein, streptavidin-DELFIA; inhibition was only partial. As to the method:
as §4, §5

Test [7] addresses T8, BCMA fusion protein. Put plainly: receptor binding inhibition assay: unlabelled APRIL titrated against bio-APRIL (5 ng/ml, the competitor) for binding to plate-coated BCMA fusion protein; streptavidin Delfia, fluorescence counts. As to the method: as §4
Test [8] has as its target T9, TACI fusion protein. The test can be described thus: receptor binding inhibition assay: unlabelled APRIL titrated against bio-APRIL (50 ng/ml, the competitor) for binding to plate-coated TACI fusion protein; streptavidin Delfia, fluorescence counts. The procedure: as §4, §5
The target in test [9] is B2. The test can be described thus: Title of Table 1; scFv identified by phage display selection and phage ELISA (Example 1).
The target in test [10] is T7, biotinylated APRIL. Put plainly: scFv inhibition of bio-APRIL (5 ng/ml) binding to coated BCMA fusion protein, streptavidin-DELFIA; partial inhibition; unit cell reads 'nM (3)'. The procedure:
as §4

The target in test [11] is T7, biotinylated APRIL. The test can be described thus: scFv inhibition of bio-APRIL (50 ng/ml) binding to coated TACI fusion protein, streptavidin-DELFIA; partial inhibition; unit cell reads 'nM (1)'. The procedure: as §4, §5

T6 sequence (P02769 25-607 limits assumed): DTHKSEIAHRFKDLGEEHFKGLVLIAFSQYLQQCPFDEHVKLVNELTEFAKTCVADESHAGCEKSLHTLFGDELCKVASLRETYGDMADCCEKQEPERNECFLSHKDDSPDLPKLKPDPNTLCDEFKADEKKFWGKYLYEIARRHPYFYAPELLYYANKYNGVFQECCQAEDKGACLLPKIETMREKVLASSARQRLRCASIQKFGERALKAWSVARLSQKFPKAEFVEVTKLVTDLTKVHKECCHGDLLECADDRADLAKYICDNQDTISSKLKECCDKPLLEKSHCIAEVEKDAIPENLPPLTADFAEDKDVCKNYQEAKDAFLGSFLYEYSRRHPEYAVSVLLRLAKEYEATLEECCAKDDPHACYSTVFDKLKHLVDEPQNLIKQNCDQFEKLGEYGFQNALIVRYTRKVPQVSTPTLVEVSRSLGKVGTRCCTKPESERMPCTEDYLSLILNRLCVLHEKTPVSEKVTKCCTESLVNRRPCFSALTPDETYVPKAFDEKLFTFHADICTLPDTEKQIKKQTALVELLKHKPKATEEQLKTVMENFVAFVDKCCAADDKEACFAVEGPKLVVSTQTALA

B1: A019C11 (scFv)
scFv: EVQLVQSGAEVKKPGASVKVSCKTSGYTFTDNYMHWVRQAPGQGLEWMGWISPNSSTTLYAQKFRGRVTLTRDTSVSTAYMELSGLDSDDTALYFCARGGRLAGSTVFTPAFEYWGRGTMVTVSSGGGGSGGGGSGGGGSAQAVLTQPSSVSEAPRQRVTISCSGSSSNIGNNAVKWYQQLPGKAPKLLIYYDDLLPSGVSDRFSGSKSGTSASLAISGLQSEDEADYYCAAWDDSLNGYVFGTGTKVTVLG
Turning to B1, the binding result in the test with BCMA, with TACI, in the test with BLyS, in the test with LIGHT, in the test with TNF-α and with BSA was “no binding (tested: antigen coated at 1 µg/ml)” in each case. For the same molecule, the IC50 was determined as 4.3 nM with biotinylated APRIL [1], 10 nM with biotinylated APRIL [2], 10 nM with biotinylated APRIL [3] and 7 nM with biotinylated APRIL [4].

Take B2: the IC50 with BCMA fusion protein [5] came out at 0.048 nM; with TACI fusion protein [6], 1.3 nM; with BCMA fusion protein [7], 0.043 nM; with TACI fusion protein [8] it was 0.165 nM.

B3: A027H08 (scFv)
scFv: QVQLQQSGAEVKKPGSSVKVSCKASGGTFSSYAISWVRQTPGQGLEWMGGIIPIFGAANYAQKFQGRVTITADESTSTAHMELSSLRSEDTAVYYCARGISGGMDVWGKGTLVTVSSGGGSGGGGSGGGGSDIQMTQSPSTLSASIGDRVTITCRASEGIYHWLAWYQQKPGKAPKLLIYKASSLASGAPSRFSGSGSGTDFTLTISSLQPDDFATYYCQQYSNYPLTFGGGTKLEIKR
Consider B3, for which the binding result in [9] is “binds”.

B4: A024G01 (scFv)
scFv: EVQLVQSGAEVKKPGSSVKVSCKASGGTLSSDSITWVRQAPGQGLEWVGGLIPALGTANYAQKFQGRVTMTADRSTGTAYMELRSLKFDDTAVYYCARVSRTSYYDVLTDNNRYSYYMDVWGKGTLVTVSSGGGGSGGGGSGGGGSAHVILTQPPSVSVSPTQTATITCSGDHLGRKSLSWYQQKPGQSPVLVIYEDFKRPSGIPERFSASNSGYTATLTISGTQAMDEADYYCQAWDNRAVVFGGGTKLTVLG
Take B4: the concentration for half-maximal inhibition (IC50) amounted to 19 nM with biotinylated APRIL [10] and 4 nM with biotinylated APRIL [11].
